The source of these data is paper PMC13083842.

The target in the experiment is interleukin-6 (IL-6) (human) (UniProt P05231). The experiment can be described thus: SPR; IL-6 amine-coupled on a CM5 chip (Biacore T200); analytes in multi-cycle kinetics, 0.39 to 100 nM, 30 µL/min, 180 s association, 1200 s dissociation, HBS-N + 10 mM CaCl2; global fit, 1:1 model; where koff was below the detection limit KD was estimated from kon and the theoretical maximum koff.
interleukin-6 (IL-6) (human), sequence (P05231 30-212): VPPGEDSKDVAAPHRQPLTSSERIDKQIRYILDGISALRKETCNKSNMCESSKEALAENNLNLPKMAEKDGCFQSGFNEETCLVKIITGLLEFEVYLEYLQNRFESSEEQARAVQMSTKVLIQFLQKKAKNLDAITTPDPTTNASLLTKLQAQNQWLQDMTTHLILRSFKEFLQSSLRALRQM

Consider “sIL-6R-TGN 1:5 (from UniProt P08887 20-355) (receptor)”, for which the equilibrium dissociation constant (Kd) (usually the free concentration of one partner at which half of the binding sites on the other are occupied at equilibrium, for simple one-to-one binding) is 428 nM.
“soluble IL-6 receptor (sIL-6R) (from UniProt P08887 20-355)”: the Kd was 131 nM; the off-rate (koff) – broadly, a measure of how fast the partners let go of each other – is 0.035 s⁻¹; the on-rate constant (kon) (as a rule, the rate constant with which the complex forms) was 248000 M⁻¹ s⁻¹.
